Tests used:
[1] = target: T1, cleaved Ebola virus glycoprotein (EBOV GPCL) (Zaire ebolavirus, Mayinga-76); experiment: BLI
T1 chain 1: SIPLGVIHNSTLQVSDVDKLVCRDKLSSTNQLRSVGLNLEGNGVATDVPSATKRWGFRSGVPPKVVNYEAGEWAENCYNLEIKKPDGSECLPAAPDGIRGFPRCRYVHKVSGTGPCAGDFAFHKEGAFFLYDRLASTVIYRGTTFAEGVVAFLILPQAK
T1 chain 2: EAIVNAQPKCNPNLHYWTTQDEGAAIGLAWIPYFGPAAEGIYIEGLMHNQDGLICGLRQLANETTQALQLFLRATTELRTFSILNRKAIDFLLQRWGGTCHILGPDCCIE

[2] = target: T1, cleaved Ebola virus glycoprotein (EBOV …); experiment: cell-based or functional assay
[3] = target: SUDV GP ectodomain (Sudan ebolavirus; strain not named for …, UniProt Q66814); experiment: cell-based or functional assay

B1: ADI-15946 IgG (antibody, V domains shown)
VH: EVQLVESGGGLVKPGGSLRLSCAASGFTFSNAWMSWVRQAPGKGLEWVGRIKSKTDGGTIDYAAPVKGRFTISRDDSKNTVYLQMTSLKTEDTAVYYCTTYTEDMRYFDWLLRGGETFDYWGQGTLVTVSS
VL: DIRLTQSPSSLSASVGDRVTITCRASHYISTYLNWYQQKPGKAPKLLIYAASNLQSGVPSRFSGSGFGTDFSLTISSLQPEDFATYHCQQSYSTPGRYTFGQGTKVEIK
fold improvement in binding (KDapp) against full-length GP [1]: 10000 fold | fold increased kon against EBOV GPFL [1]: 10 fold | fold slower koff against EBOV GPFL [1]: > 1000 fold | neutralization potency against rVSV-EBOV GPCL compared to rVSV-EBOV GPFL [2]: 100 fold

B2: ADI-15946 LC^WT:HC^IGL (antibody, V domains shown)
VH: not shown
VL: DIRLTQSPSSLSASVGDRVTITCRASHYISTYLNWYQQKPGKAPKLLIYAASNLQSGVPSRFSGSGFGTDFSLTISSLQPEDFATYHCQQSYSTPGRYTFGQGTKVEIK
binding result [1]: binds

B3: 46M2 (antibody, V domains shown)
VH: EVQLVESGGGLVKPGGSLRLSCAASGFTFSNAWMSWVRQAPGKGLEWVGRIKSKTDGGTIDYAAPVKGRFTISRDDSKNTVYLQMTSLKTEDTAVYYCTTYTEDMAYFDWLLRGGETFDYWGQGTLVTVSS
VL: DIRLTQSPSSLSASVGDRVTITCRASHYISTYLNWYQQKPGKAPKLLIYAASNLQSGVPSRFSGYGFGTDFSLTISSLQPEDFATYHCQQSYSTPGRYTFGQGTKVEIK
fold improvement in neutralization of authentic SUDV against parental ADI-15946 [3]: 33 fold

B4: 46M3 (antibody, V domains shown)
VH: EVQLVESGGGLVKPGGSLRLSCAASGFTFSNAWMSWVRQAPGKGLEWVGRIKSKTDGGTIDYAAPVKGRFTISRDDSKNTVYLQMTSLKTEDTAVYYCTTYTEDMAYFDWLLRGGETFDYWGQGTLVTVSS
VL: DIRLTQSPSSLSASVGDRVTITCRASHYISTYLNWYQQKPGKAPKLLIYAASNLQSGVPSRFSGYGYGTDFSLTISSLQPEDFATYHCQQSYSTPGRYTFGQGTKVEIK
fold improvement in neutralization of authentic SUDV against parental ADI-15946 [3]: 33 fold
